# In patent US20210260113A1, “DEVICES, METHODS, COMPOSITIONS AND SYSTEMS FOR THE TREATMENT OF AGING AND AGE-RELATED DISORDERS” (Gero LLC, priority 2018, published 2021):
# No end group written: not given here.
# Target: T1, NBL1 (AA 1-180) protein (FcTag) (Homo sapiens, UniProt P41271)
# T1 construct: NBL1 (AA 1-180) protein (FcTag); purchased SinoBiological (via AntibodiesOnline) BIN2002229
# T1 sequence (P41271 17-180): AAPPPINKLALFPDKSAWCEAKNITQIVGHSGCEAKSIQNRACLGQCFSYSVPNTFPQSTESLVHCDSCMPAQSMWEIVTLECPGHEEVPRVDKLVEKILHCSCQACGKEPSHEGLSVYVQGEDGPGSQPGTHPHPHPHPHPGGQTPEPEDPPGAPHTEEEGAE
# Assay: PEPperCHIP Discovery Microarray screening of cyclic peptide binders
# Format: binding
# Details: cyclic peptides of common structure S1 with the given SEQ; NBL1 at 10 μg/ml
# Text: The peptide target binder discovery screening was done with PEPperCHIP® Discovery Microarrays with 36,040 random peptides with alength of 12 amino acids printed in duplicate (72,080 peptide spots). After peptide synthesis, all peptides were cyclized via a thioetherlinkage between a C-terminal cysteine side chain and an appropriately modified N-terminus. The PEPperCHIP® Discovery Microarrays contained additional myc(EQKLISEEDL, 415 spots) and HA (YPYDVPDYAG, 420 spots) control peptides as specified in the peptide maps of the microarray data files.
# Samples: NBL1 (AA 1-180) protein (FcTag) (SinoBiological, AntibodiesOnline BIN2002229) Washing Buffer: PBS, pH 7.4 with 0.005% Tween 20 (2×10 sec after each assay) Blocking Buffer: Rockland blocking buffer MB-070 (30 min before the first assay) Incubation Buffer: Washing buffer with 1% blocking buffer Assay Conditions: Protein concentrations of […] in incubation buffer; incubation for 16 h at 4° C. and shaking at 140 rpm Secondary Antibodies: Mouse natriuretic peptides B DyLight800 antibody (1:5000; Hytest, AntibodiesOnline product ABIN263370), goat anti-human IgG (Fc) DyLight680 (1:5000); 45 min staining in incubation buffer at RT Control Antibodies: Mouse monoclonal anti-HA (12CA5) DyLight680(1:2000), mouse monoclonal anti-HA (12CA5) DyLight800 (1:2000); 45 min staining in incubation buffer at RT Scanner: LI-COR Odyssey Imaging System; scanning offset 0.65 mm, resolution 21 μm, scanning intensities of 7/7 (red=700 nm/green=800 nm)
# After 15 min pre-swelling in washing buffer and 30 min in blocking buffer, two PEPperCHIP® Discovery Microarrays were initially incubated with the secondary antibodies mouse natriuretic peptides B DyLight800 (1:5000) and goat anti-human IgG (Fc) DyLight680 (1:5000) as well as with the control antibodies in incubation buffer to analyze background interactions with the 36,040 different random cyclic constrained peptides of the microarrays. Subsequent incubation of the PEPperCHIP® Discovery Microarrays was done with target proteins NBL1 at concentrations of 1 μg/ml and 10 μg/ml in incubation buffer and followed by staining with the secondary antibodies as well as read-out with a LI-COR Odyssey Imaging System at scanning intensity of 7/7 (red/green). The additional HA peptides framing the peptide microarrays were simultaneously stained as internal quality control to confirm the assay quality and the peptide microarray integrity.
# A software algorithm breaks down fluorescence intensities of each spot into raw, foreground and background signal, and calculates averaged median foreground intensities and spot-to-spot deviations of spot duplicates. We tolerated a maximum spot-to-spot deviation of 40%, otherwise the corresponding intensity value was zeroed. Based on averaged median foreground intensities, an intensity map was generated and interactions in the peptide map highlighted by an intensity color code with red(NBL1 for high and white for low spot intensities.
# To identify the top interactions of the target proteins, the averaged and corrected intensity values were sorted by decreasing spot intensities. We further plotted averaged spot intensities of all assays against the microarray content from left on top to right on bottom of the chip to visualize overall spot intensities and signal-to-noise ratios. For a better data overview, the baselines of the intensity plots were leveled and main responses annotated next to the corresponding signal. The intensity plots were correlated with peptide and intensity maps as well as with visual inspection of the microarray scans to identify peptides that interacted with target proteins NBL1.
row,Sequence,"intensity values, 10 μg/ml"
1,NCYHMVYYLIIL,185
2,FDWRISQRMRRR,448
3,GDRGCFFIVTFI,214
4,DMAARCVCKRRR,554
5,KQRSKRMASMKLF,249
6,HTWPYALTQKRR,176.5
7,RYNQSIRVIIGR,234
8,"YMPSNCCWWWRR (not fully specified (C-terminus, bridges); also: cyclized via thioether between C-terminal Cys side chain and modified N-terminus)",197
9,KVALFLANRLFR,181
10,"WVARDHVNHNRR (not fully specified (C-terminus, bridges); also: cyclized via thioether between C-terminal Cys side chain and modified N-terminus)",189
11,RFNHVTCRTFKR,301.5
12,ARMRQTHRPVYR,317.5
13,"YWTKGLLWRNRR (not fully specified (C-terminus, bridges); also: cyclized via thioether between C-terminal Cys side chain and modified N-terminus)",323
14,RPRHVFKLYGRL,205
15,TLRCHRHRFR,489
16,RHGTRYHSRLFR,179.5
17,SQKMLRRGGMIRK,236.5
18,"YWHKKLYYMRYR (not fully specified (C-terminus, bridges); also: cyclized via thioether between C-terminal Cys side chain and modified N-terminus)",200.5
19,ARQSHRRPGGKR,338
20,IRHSDRVDRYSR,172
21,KVRALRDISYRR,190.5
22,"WVRIRLSRRQFR (not fully specified (C-terminus, bridges); also: cyclized via thioether between C-terminal Cys side chain and modified N-terminus)",235
23,RKKDPRAYDRFR,294.5
24,GRHLPEASKRFR,192
25,"YYRIHHQRRGRS (not fully specified (C-terminus, bridges); also: cyclized via thioether between C-terminal Cys side chain and modified N-terminus)",452

row,Sequence,"intensity values, 10 μg/ml"
1,CHCIHFTHRRLR,290
2,LFENCANVCIGL,193.5
3,"YHATGVRWRFLR (not fully specified (C-terminus, bridges); also: cyclized via thioether between C-terminal Cys side chain and modified N-terminus)",445
4,LGPAACFTSEPV,212.5
5,DSRKFFYRGNRR,328
6,LRNVVFIWHIRYR,213
7,IYFYSCSVPGMY,233
8,"YGSHYYWNHLRR (not fully specified (C-terminus, bridges); also: cyclized via thioether between C-terminal Cys side chain and modified N-terminus)",185
9,LVMWHRHFALRR,185
10,RRRAQPSPMRHK,187
11,RQNANKAWQKRR,182.5
12,FPMCQKVPFVRR,174.5
13,VDFGGGWVCFCP,189
14,"YHHKPQRQNRGR (not fully specified (C-terminus, bridges); also: cyclized via thioether between C-terminal Cys side chain and modified N-terminus)",283
15,RFTYSPTQRAYR,186
16,DFKQLLLPGRKR,216
17,TYDNYIRYFRIR,175
18,MFFRPFKGHGRR,251.5
19,FWFHLKYWAWRR,215
20,NKQMNHPPRRHR,210
21,VHQCRASRYPRI,235.5
22,SRHNYSHWFYRR,198
23,LRLFKISRNFPR,177
24,FPQSRGRGKLWR,195
